The target of experiment [1] is glutamine synthetase type I-α from Methanothermococcus thermolithotrophicus (Methanothermococcus thermolithotrophicus (endogenous, DSM 2095)). As to the kind of experiment: crystal structure.
For experiment [2] the target is unchanged. As to the kind of experiment: native gel or EMSA. On the technique in general: Mobility shift assays separate free from complexed probe on a gel.
The target in experiment [3] is glutamine synthetase type I-α from Methermicoccus shengliensis (Methermicoccus shengliensis (endogenous, ZC-1, DSM 18856)). As to the kind of experiment: crystal structure.
Experiment [4] has the same target. As to the kind of experiment: native gel or EMSA.

In the case of “glutamine synthetase type I-α from Methanothermococcus thermolithotrophicus (enzyme)”, the stoichiometry N in experiment [1] and in experiment [2] was 12 in each case.
For the substance “glutamine synthetase type I-α from Methermicoccus shengliensis (enzyme)”, the stoichiometry N in experiment [3] and in experiment [4] was 12 in each case.

The record behind these values is doi:10.1101/2023.04.07.535877.
